The target of the series is UAF (Rrn5-Rrn9-Rrn10-Uaf30-H3-H4);TBP (TATA-box-binding protein) ((budding yeast);(budding yeast)) (UniProt Q02983+P53437+P38204+Q08747+P61830+P02309+P13393). The series can be described thus: cryo-EM 2.8 A. Conditions: 30 mM Hepes-NaOH pH 7.5, 30 mM sodium citrate pH 6.0, 250 mM KCl, 2 mM DTT; filter binding 1 h at 4 C; footprinting on ice, then 2.5 mM MgCl2, 0.5 mM CaCl2 ….

With “GAAAAAAAAAATATACGCTAAGATTTTTGGAGAATAGCTTAAATTGAAGTTTTTCTCGGCGAGAAATACGTAGTTAAGGCAGAGCGACAGAGAGGGCAAAAGAAAATAAAAGTAAGATTTTAGTTTGTAATGGGAGGGGGGGTTTAGTCAT (double strand) [35S rRNA promoter -190/-40 (cryo-EM DNA)]”, the binding entry is listed as “binds”.

These data come from PMC9020658.
